B1: Protein CBFA2T1 (Homo sapiens), Q06455 (parent)
chain: MISVKRNTWRALSLVIGDCRKKGNFEYCQDRTEKHSTMPDSPVDVKTQSRLTPPTMPPPPTTQGAPRTSSFTPTTLTNGTSHSPTALNGAPSPPNGFSNGPSSSSSSSLANQQLPPACGARQLSKLKRFLTTLQQFGNDISPEIGERVRTLVLGLVNSTLTIEEFHSKLQEATNFPLRPFVIPFLKANLPLLQRELLHCARLAKQNPAQYLAQHEQLLLDASTTSPVDSSELLLDVNENGKRRTPDRTKENGFDREPLHSEHPSKRPCTISPGQRYSPNNGLSYQPNGLPHPTPPPPQHYRLDDMAIAHHYRDSYRHPSHRDLRDRNRPMGLHGTRQEEMIDHRLTDREWAEEWKHLDHLLNCIMDMVEKTRRSLTVLRRCQEADREELNYWIRRYSDAEDLKKGGGSSSSHSRQQSPVNPDPVALDAHREFLHRPASGYVPEEIWKKAEEAVNEVKRQAMTELQKAVSEAERKAHDMITTERAKMERTVAEAKRQAAEDALAVINQQEDSSESCWNCGRKASETCSGCNTARYCGSFCQHKDWEKHHHICGQTLQAQQQGDTPAVSSSVTPNSGAGSPMDTPPAATPRSTTPGTPSTIETTPR

Variants of: B1
Settings: with ncor1_human NCOR1, O75376
Sequence of ncor1_human NCOR1, O75376 (O75376 whole entry): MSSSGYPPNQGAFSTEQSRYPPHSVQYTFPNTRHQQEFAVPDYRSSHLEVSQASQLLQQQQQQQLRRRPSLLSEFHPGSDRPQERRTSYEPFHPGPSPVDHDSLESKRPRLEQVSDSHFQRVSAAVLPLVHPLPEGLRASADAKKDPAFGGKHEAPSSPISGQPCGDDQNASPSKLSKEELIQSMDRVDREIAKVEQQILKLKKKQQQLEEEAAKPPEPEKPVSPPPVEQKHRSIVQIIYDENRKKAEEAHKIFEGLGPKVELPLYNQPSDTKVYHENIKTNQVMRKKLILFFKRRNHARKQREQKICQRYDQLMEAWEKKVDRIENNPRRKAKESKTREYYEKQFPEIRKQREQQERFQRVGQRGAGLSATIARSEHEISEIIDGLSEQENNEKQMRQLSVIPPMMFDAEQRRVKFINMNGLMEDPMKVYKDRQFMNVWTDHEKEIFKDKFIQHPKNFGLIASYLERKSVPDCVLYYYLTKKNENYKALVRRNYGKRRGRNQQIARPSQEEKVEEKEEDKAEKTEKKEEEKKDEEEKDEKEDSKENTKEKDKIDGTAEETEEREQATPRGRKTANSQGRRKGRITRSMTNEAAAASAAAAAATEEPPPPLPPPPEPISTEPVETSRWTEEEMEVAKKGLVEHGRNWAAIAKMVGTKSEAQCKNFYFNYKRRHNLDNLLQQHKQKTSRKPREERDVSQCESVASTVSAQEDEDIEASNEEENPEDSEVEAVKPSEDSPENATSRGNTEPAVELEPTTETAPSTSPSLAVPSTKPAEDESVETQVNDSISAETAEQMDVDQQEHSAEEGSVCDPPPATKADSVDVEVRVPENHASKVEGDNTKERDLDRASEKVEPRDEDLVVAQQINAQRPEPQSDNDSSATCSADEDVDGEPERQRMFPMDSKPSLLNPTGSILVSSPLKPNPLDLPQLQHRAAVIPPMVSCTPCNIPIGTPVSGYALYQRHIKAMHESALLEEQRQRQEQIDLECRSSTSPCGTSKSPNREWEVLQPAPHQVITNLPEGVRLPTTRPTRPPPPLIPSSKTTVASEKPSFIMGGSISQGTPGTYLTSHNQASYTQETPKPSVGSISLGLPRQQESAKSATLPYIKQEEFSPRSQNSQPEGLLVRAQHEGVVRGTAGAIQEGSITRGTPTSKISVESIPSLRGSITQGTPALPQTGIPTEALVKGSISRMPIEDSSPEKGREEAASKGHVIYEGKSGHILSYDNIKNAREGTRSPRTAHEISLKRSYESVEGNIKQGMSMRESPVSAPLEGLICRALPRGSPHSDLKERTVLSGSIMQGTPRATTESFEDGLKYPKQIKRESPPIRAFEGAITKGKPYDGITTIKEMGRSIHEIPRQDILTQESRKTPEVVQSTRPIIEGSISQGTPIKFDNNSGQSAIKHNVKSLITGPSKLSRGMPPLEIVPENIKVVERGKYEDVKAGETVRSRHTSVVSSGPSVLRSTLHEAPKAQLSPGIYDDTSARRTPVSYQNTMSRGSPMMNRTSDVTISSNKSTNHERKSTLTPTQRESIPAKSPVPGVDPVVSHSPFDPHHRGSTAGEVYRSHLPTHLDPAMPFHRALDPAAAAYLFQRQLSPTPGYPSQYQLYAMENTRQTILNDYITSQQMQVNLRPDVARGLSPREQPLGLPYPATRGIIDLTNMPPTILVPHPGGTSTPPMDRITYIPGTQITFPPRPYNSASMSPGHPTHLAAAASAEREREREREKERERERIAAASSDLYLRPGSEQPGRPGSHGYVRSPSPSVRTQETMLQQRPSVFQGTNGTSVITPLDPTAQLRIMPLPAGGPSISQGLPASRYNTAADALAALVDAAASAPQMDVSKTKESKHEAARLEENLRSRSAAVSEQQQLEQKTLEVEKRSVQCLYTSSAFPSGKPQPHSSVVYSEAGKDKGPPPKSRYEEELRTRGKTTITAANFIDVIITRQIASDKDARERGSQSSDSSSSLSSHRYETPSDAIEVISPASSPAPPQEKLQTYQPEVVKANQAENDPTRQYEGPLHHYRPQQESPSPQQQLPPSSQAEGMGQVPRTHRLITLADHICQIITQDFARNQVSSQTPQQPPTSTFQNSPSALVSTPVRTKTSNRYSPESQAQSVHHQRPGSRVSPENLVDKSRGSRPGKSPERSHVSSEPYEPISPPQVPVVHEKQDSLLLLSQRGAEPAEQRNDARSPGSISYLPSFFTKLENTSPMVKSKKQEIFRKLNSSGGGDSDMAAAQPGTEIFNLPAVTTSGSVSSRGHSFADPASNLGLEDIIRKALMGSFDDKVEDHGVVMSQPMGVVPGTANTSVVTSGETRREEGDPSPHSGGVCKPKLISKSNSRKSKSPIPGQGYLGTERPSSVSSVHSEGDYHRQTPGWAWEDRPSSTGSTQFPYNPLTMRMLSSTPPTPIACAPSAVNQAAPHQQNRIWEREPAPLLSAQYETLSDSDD

Effect of a mutation on the interaction, decreasing interaction:
F129K
L177A
F175A
F136A
Q170A
T173Q
